Measured values published in the domain aggregation screens of Martell et al. (2025).

Assay: soluble fraction after stress (log2 fold change); higher = more stays soluble; pooled small domains, quantitative proteomics
Conditions: stress: 50 degC
Outline: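 Custom libraries of small protein domains were pooled and measured in a high-throughput format, with quantitative proteomics as the read-out. Each library was stressed at 50°C. The value is the log2 fold change in the amount of each protein that stays soluble after stress, used as a measure of aggregation propensity; higher values mean more of the protein stays soluble.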

Row | Sequence | soluble fraction (log2)
1 | HMAIDINKIYSEIKKKIPNQDNHIKEILSIIWRDFNNYQNIKSRSILINGEKSSPKKEIFNIIEDNINIPV | 0.0154
2 | HMSILTELDIGDKVEVVAGPFKGIQANITRIEPVRKEVTVILLDAPYQLPVTVDADYLKIIQKS | -0.155
3 | HMKRMSKKQLSAVIEKYFSSQPGVTLTLKDIFRNLHLDTHPLKMIALDILEEMSWDDVIMKVSDTSYALNT | 0.281
4 | HMDTIVVAARSIQARQTLTESDLRVEEQEIGAASDKYYTDIAEAVGLVSSRRLSPGQPILRTM | -0.28
5 | HMATNVLEISTRNKNILIQDSLNLVESFYSKSDNQYWYKLVFKTKDDLNKFLQEVSEDENTITYKTSSI | 0.217
6 | HMNYDPEEKITQIRTMLEIHSRIEFNEIITPATRRGEIIIIFLALLHMIKRGYIVVRQHRLFGDITIFARD | -0.152
7 | HMQAPVDPIVLGKMGSSYGIRGWLRVFSSTEDAESIFDYQPWFIQKAGQWQQVQLESWKHHNQDMIIKLN | 0.0749
8 | HMGPVRDLGLLESAAHRPTTALWGRDVYATIEKKAAALLDSLVRDRPLADGNKRLGWLAALV | 0.0437
9 | HMIVLPGEELEVHIVQEGKEDGQGVAYLDDGTMVVVEGGRPYVDSFAYVAVTRVLQTGAGRIIFAHPTR | -0.832
10 | HMLAQISDEGAIGAVVARVLDAHPNEVARYHAGEEKVAKFLMGAAMRELRGKGDPAVVQRLLSEGLDARRV | 0.119
11 | HMTDAEQHEALLFKQVVDGLPQTLRDTFVLSRHAGMTYAEISAHTGTPIKTVESRMAKALELIAQRMR | -0.67
12 | HMDYYKILGLSTSATLDQIKKAFRQLAIEFHPDKNPNNPTAEDKFQRISEAYAVLSNPEKRAEYDRSY | -0.0923
13 | HMSNYPYLLRTYEGKLAVFTDDLVQPDLVFDVYVRTLPELDQQQLSRGIRVKTYDELTSMIEDYI | -1.13
14 | HMSETVYQYVARQLRDMLGSGEIPVGQQLPTYRELAKRFQVSLSVIQRAMRQLKAEAVVSIAHGQGVKAVR | -0.42
15 | HMLDYITLSPQELGKLLSAGNGDAAMVYLYMKATGDVTLKQAETQLGMTNQNLAWAESLLKRLGLMD | -0.556
16 | HMELDIGKKAIVIEKIDPEAGTGRVRIEGVDWGAKTADSSVIEKGETVVVKAKGAAFVTVAK | 0.18
17 | HMAAAQILRAAVLRVPAEETMRFVTETPELRRYLGASLGPTAAIVRPGQEQNLAAALQSHGILVEFDE | 0.0258
18 | HMPQNVSVPDVTNMTQAEAESKLKEKNLAVGNIIPELSTTVEKDKVTRTNPESGSNVRKNSKVDIYVSQG | 0.0455
19 | HMKQENRLKILRKEKGLTQTKLANEIGVSKRTIIAWENDERQIKPDKAQQLADYFGVKEGYLLGYTNN | 0.132
20 | HMKPPTIELSYSEFIELVERGKVSKVIFSSDNYTLKGETVNGENFETVRPPFLEDNLSEILTIHKVPVSSE | -0.208
21 | HMELNEIEFENLKESIIIHLEKESLSPHELVKHIQTIHPDKVTAVIQWMLENGFIKTDAGGQLTLVSK | 0.135
22 | HMNDELMEQIDEWHKAEKHQEIIDALEQIPEAERDFETTGFLARAYNNIEEYAKAADLLESVRE | 0.0873
23 | HMFVTFFHELKSAGVPVSLREYLTLMEAMDRDLASRRVEEFYYLARTALVKDERNLDKFDRVFGHVFKGL | -3.65
24 | HMLEYIEPRTAVQIHGIKAKPELNGKRGMVMGYAPERMRYRVRIDVGEGTGGKESEEVYLKPENVIAVK | 0.0778
25 | HMGSSLLSPKEREVLQLLAGNLSNKQIALAMGVSDETIKWHLRNLFGKLNAGGRKHLIDRARMLGLLAAA | -0.6
26 | HMGGVTVQNRETHVNSTVNVRSEQTTESERVALAYQGDAITQIESYENGWSKVEYKGLSGYVMTEYL | -0.181
27 | HMNVEGEVVVPNVIGRTMKDVAVILSDLGLRMEAEGTGVAKSSQPQHGTSVKRGTVVQVRFEPLSVN | 0.141
28 | HMNTSSVTVHYQDEAGKSLADTVTLTGKVGETYSSEQKKITGYNFKEVRGNPKGQFTTEAQTVTYVYTQAA | 0.156

Row | Sequence | soluble fraction (log2)
29 | HMGDTLEIVVIYSNKQKAEEAVNNLKGKFEDLGYNFAIITVDTSKITQLAMESSIQYIEFPKSFYFSD | -1.64
30 | HMSSGSLLTEREIEILAEMAKGLTNKAIGEKLFISVATVKTHILNIYRKLEVSSRVTAVNKAKQMRL | -1.93
31 | HMKNAMTDIYLEEIKKILTKNEFLVYTLRELNNFSVQFITDNYDLSEKTIYNSVYRAKKKIDRHFT | -0.0693
32 | HMTSRWEIGYNVAKKYYDEHGNLDVERAVYDNFELKKWLNTQRYKNSAGTLAEKYKIKLDELGMNWER | 0.0505
33 | HMETKIKFQIQTLDELNIRKVADWDAKAITTVKKGQILDVVDTVAAKNGSTPMYRLESGLYITASPKYVKK | -0.376
34 | HMDAHYMEMKGKTGTAFTMLRPAGKIDIEGQIFDAVAEAGFIEKGEAIRVVKYENAQLIVRK | 0.11
35 | HMREYRITAEEGHPRIDVFLAGRPEIGLSRSRIQALIDEGQVTLNGAMPKARQAVNPGDVIVVRVPDPE | 0.263
36 | HMQRNLILKLDTDQPEIYKKLESIFVEINGLLVPFFIEKIIWSKQDSLNILFKNSSEALVEQLIGKNVFLP | 0.0989
37 | HMSLGSNISRLRAEKHLSQGDLAEALDVSRQSVSKWETDGSVPDLDKLVKLSRIFGVTLDELVTGTP | 0.0174
38 | HMGDYERVPEYKGKLTSDLTMEDSQKFAFRFIWQNSDEDEGKIIDQDPPAGKSVAKGSEIVLYVSNG | 0.35
39 | HMNEIEIHINKLFGKISDSKRKQELMQEITQNLNEKVSDLVSQGQTREQAVKKAIEDFGDIDDLKDELDN | 0.275
40 | HMNPETLTNGSVVKMSKANLSDELIIDMINNSPARFDLSSGALRSLEGEGVSKAVIESMKRATSG | 0.191
41 | HMARLAGVDLPREKRIEIGLTYIYGIGLARSQEILKKAGINPDIRVKDLTDEQEQAIRNAMDGYIVEGDL | -0.148
42 | HMRPTDVLNYDESMRILNFSNNRVGFKHLMDAKGIEQVIFKNRKIGYRKSEILALKSELEAEQK | -0.341
43 | HMSTMTEQEAFGLWERINDFIARTGNEPNRNSNDAHEVRMAEALNFIRIKVAEQRNSQSNSEAQNN | -0.0168
44 | HMSEQIALQFAKAKQHHTGIALKGIEALELRYKGYTGKEIAALYHTSPKSVFSWISRAKQKLRQN | -0.375
45 | HMNESADMPDVVNMSLEAAKSQLEGMGLKVKVENVEDDSVEENHVIKTSPVSGEKVKLGTTVTLTVSKGR | -0.0231
46 | HMARGRETILLVEDEPAVRGLVHATLRLHGYTVLEARHGIEALLTSTKFVGPIHLLLTDVVMPQMS | 0.182
47 | HMPSHALFWTLLKEVPGYDPHYKDVIKEGIVHEHSGGRTTSLSEMYTKYPREYSLMIEAMKG | -0.487
48 | HMPPITIVPNDNGVPIIRSQTPEISTAVNVELKAAGINTHTIDGTSIRVPKAQAQVAQQIVSRVNTRFT | 0.158
49 | HMDFTPDQIARLDDIISRYKDKPGGLIPVLEEAQVALEYLPIGVQKRIAKGLNLPLSRVYGVVTFYSFFTM | -0.0911
50 | HMGQAELPYSEFLREVNNGQVKSVIIEGSEITGFYKTSGTSFNVIAPDDPKLVERLMAQGVEVRAQPA | 0.0327
51 | HMSNLVEVPAVIGRMKEDAITMLISAGLEPAVTYDEYPLVKENLVADQSVAPGQKVEKGSFVTITVSRS | -0.0475
52 | HMQQFGANVRLIRKARQMSIKQLSELSGVSQTMISEVERGLKIPTIDVAGKIAAALGIDLTNLMG | -0.465
53 | HMHGYLSDPAARLIRARRKTLSIRITQEGNLEIRAPLGMPKGEIEAFLKEKAQWIETHRAKVLAEYA | -2.24
54 | HMSVFTPLTRSELETFLAPYELGRLLDFQGIAAGSENTNYFISLEKGEYVLTLVERGPVAEMPFFIELLD | -0.982
55 | HMPTERLSMRRIRELLRLRFEVGLSTRLIATALGISKGAVGDYLQRAQVAGLGWPLPENLNDAALERRLFP | -0.681
